Here are results for four compounds from patent US7906477B2 (Genspera, Inc., priority 2002, dated 2011).

For data set [1], the target named is sarcoplasmic reticulum (SR) and endoplasmic reticulum (ER) Ca^2+-ATPase (SERCA) pump. The conditions noted are these: read-out: apparent dissociation constant for TG from the SERCA pump; cited from earlier work.
Data set [2] in a line: plasma stability of acetylated versus non-acetylated peptide (plasma species not stated). In kind it is in vitro ADME. The conditions noted are these: plate-reader assay and analytical HPLC. The protocol:
Mouse plasma was obtained from cardiac puncture of anesthetized mice prior to euthanization by CO2 overdose according to protocols approved by the Johns Hopkins Animal Care and Use Committee. Human plasma was obtained from discarded, pooled, and unlabeled clinical samples. Plasma was diluted to 50% in Tris buffer (50 mM Tris-HCl, 100 mM NaCl, pH 7.8). To this, test peptides/prodrugs were added to 250 or 500 μM final concentration. After the incubation period, one volume (200 μl) of acetonitrile was added to precipitate the protein fraction and the tube was centrifuged at 14,000 for 2 min. The supernatant was analyzed by C18-HPLC and the collected peaks were analyzed by MALDI-TOF as described above.
To determine whether merely the acetylation of the N-terminus of the hK2 prodrug contributed to its stability, an acetylated fluorescence-quenched peptide (ac-Y′GKAFRRLGK′; SEQ ID NO:18) was synthesized and compared its plasma stability with that of the non-acetylated peptide (Y′GKAFRRLGK′; SEQ ID NO:21). […] Analytical HPLC indicated the same result. […] The paradoxical stability of the hK2 prodrug (ac-GKAFRR-L12ADT; SEQ ID NO:41) compared to the peptide substrates may also be due to binding of the L12ADT moiety to plasma proteins that make it inaccessible to the plasma protease activity that is responsible for hydrolysis of unconjugated (and unbound) peptides.

Another data set deals with Urokinase (Homo sapiens, UniProt P00749). Nature of the data set: hydrolysis by tumor-associated proteases: Urokinase. In kind it is biochemical. The text has this: (§1) Due to their short length, the hK2 peptide substrates could potentially be substrates for other trypsin-like proteases. Although a rather specific protease substrate can be defined with 7 amino acids, there is a lack of higher order structural information by which natural protein substrates normally impose high specificity. Cancer progression is often correlated with increased protease activity (Koblinsli, J. E. et al. (2000) Clin. Chim. Acta 291:113-135). These activities could be potentially beneficial since they could broaden the scope of applications for protease activated prodrugs. To test the hypothesis that other tumor-associated proteases could activate the prodrug, a number of known proteases (table 3), implicated in cancer progression were selected to determine if our lead substrate, GKAFRRL (SEQ ID NO:30) could be efficiently hydrolyzed by any of these proteases. For this analysis, the trypsin-like serine proteases plasmin and urokinase and cathepsins B and D were selected. Hydrolysis of both the fluorescence quenched peptide substrate and the TG-prodrug was analyzed. […] Plasmin, therefore, could be a valid target for selective activation of the GKAFRR-L12ADT (SEQ ID NO:44) prodrug in other types of cancer where plasmin activation may play an important role.

Data set [3] concerns the target T1, hK2 (Homo sapiens, UniProt P20151).
T1 construct: made in house
Put plainly: hydrolysis in the protease panel: hK2. The class given is biochemical. The conditions noted are these: enzyme 1 μg/ml, substrate 500 μM; 1 = approximately 0.1% digestion in 1 hour.
Text: as §1

The next data set concerns the target Cathepsin D (Homo sapiens, UniProt P07339). Put plainly: hydrolysis by tumor-associated proteases: Cathepsin D. In kind it is biochemical.
Text: as §1

The target in the next data set is Cathepsin B (Homo sapiens, UniProt P07858). Nature of the data set: hydrolysis by tumor-associated proteases: Cathepsin B. In kind it is biochemical.
Text: as §1

The target of a further data set is Plasmin (Homo sapiens, UniProt P00747). Put plainly: hydrolysis by tumor-associated proteases: Plasmin. In kind it is biochemical.
Text: as §1

Data set [4] deals with T1, hK2. Put plainly: hK2 hydrolysis of prodrug and non-fluorescent peptide by HPLC. Particulars: HPLC analysis. In kind it is biochemical. The protocol:
FIG. 4 depicts HPLC analysis of the hydrolysis of the hK2 prodrug Ac-GKAFRR-L12ADT (SEQ ID NO:41) by hK2 ([…]) incubated in 50 mM Tris, 0.1 M NaCl, pH 7.8 at room temperature for 24 hours. The mass of each peak was confirmed by MALDI-TOF mass spectrometric analysis.
Fluorescent substrates were analyzed by means of a fluorescence plate-reader (ex=355 nm, em=460 nm). acGKAFRRL-12ADT (SEQ ID NO:41) and acGKAFRRLG (SEQ ID NO:43) were analyzed by HPLC and quantified by HLPC integration.
This putative hK2 prodrug was incubated with enzymatically active hK2 (4 μg/ml) to determine extent of hydrolysis over time. […] In 25 min, 50% was hydrolyzed and after 1 hour, more than 80% of the starting prodrug was hydrolyzed. The ratio of the products RL-12ADT:L-12ADT was 1:1.8, as determined by HPLC integration.

Setting [5] is: enzyme 1 μg/ml, substrate 500 μM, 1 = approximately 0.1% digestion in 1 hour.

Square brackets hold non-standard residues; d marks the D form. Ends that are not written are not given here. Peptide text beside a SMILES is read from it. Tyr(3-NO2) = N[C@@H](Cc1ccc(O)c([N+](=O)[O-])c1)C(=O)O; 2Abz = Nc1ccccc1C(=O)O

T1 sequence (P20151 25-261): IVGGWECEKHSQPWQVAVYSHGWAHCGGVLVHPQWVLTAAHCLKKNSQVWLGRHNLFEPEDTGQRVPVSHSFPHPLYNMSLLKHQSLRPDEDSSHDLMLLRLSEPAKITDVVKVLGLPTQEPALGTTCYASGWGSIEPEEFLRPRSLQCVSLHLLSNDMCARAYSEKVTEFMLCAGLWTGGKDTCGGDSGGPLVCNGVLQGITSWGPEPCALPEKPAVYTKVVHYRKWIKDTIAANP
Chain of Plasmin (P00747 581-810 limits assumed, species assumed): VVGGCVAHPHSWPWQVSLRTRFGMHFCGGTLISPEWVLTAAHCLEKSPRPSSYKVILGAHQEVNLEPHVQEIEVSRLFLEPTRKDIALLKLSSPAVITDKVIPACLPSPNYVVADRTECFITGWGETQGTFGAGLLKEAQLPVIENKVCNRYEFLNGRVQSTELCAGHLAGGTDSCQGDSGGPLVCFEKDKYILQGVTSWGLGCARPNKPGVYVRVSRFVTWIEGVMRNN
Chain of Plasmin (P00747 97-580 partner limits assumed, species assumed): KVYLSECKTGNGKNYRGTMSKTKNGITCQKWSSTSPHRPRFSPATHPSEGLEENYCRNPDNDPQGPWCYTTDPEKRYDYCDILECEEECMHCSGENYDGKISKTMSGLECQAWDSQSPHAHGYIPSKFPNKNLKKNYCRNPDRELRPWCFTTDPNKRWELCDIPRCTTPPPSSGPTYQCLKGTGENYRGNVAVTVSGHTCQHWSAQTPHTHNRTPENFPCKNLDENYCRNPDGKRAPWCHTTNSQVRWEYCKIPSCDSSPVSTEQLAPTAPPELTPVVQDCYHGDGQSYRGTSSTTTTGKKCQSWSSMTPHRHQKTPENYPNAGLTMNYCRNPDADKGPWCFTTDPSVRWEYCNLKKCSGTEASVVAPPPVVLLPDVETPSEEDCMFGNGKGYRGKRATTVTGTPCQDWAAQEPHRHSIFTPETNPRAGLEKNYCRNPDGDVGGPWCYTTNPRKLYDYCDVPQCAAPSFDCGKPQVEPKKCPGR
Chain of Cathepsin D (P07339 65-412, species assumed): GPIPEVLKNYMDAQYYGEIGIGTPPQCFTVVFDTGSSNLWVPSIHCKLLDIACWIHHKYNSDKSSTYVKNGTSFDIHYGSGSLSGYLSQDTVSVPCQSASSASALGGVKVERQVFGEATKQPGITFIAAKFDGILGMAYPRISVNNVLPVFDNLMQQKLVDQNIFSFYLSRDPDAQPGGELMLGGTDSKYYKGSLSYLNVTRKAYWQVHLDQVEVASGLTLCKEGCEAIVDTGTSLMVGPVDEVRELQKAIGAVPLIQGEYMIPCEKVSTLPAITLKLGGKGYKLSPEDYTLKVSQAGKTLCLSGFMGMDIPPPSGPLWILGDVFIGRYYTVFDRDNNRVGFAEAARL

On to `C/C=C(/C)C(=O)O[C@H]1C(C)=C2[C@H]([C@@H]1OC(=O)CCCCCCC)[C@@](C)(OC(C)=O)C[C@H](OC(=O)CCC)[C@@]1(O)[C@H]2OC(=O)[C@@]1(C)O` [TG, Thapsigargin], for which the Kd in data set [1] was at most 2.2 pM.
Consider `CC(=O)N[C@@H](Cc1ccc(O)c([N+](=O)[O-])c1)C(=O)NCC(=O)N[C@@H](CCCCN)C(=O)N[C@@H](C)C(=O)N[C@@H](Cc1ccccc1)C(=O)N[C@@H](CCCNC(=N)N)C(=O)N[C@@H](CCCNC(=N)N)C(=O)N[C@@H](CC(C)C)C(=O)NCC(=O)N[C@@H](CCCCNC(=O)c1ccccc1N)C(=O)O` [ac-Y′GKAFRRLGK′] (Ac-[Tyr(3-NO2)]GKAFRRLGK(2Abz)-OH), for which, in data set [2], the “plasma hydrolysis compared with the non-acetylated peptide (in words)” value is “completely identical”.
Consider “Abz-GKAFRRLY′: fluorescence quenched peptide substrate with the lead sequence GKAFRRL ([2Abz]GKAFRRL[Tyr(3-NO2)])”, for which the “activity of Urokinase on the substrate (in words)” value with Urokinase is on record as “low activity”. In addition, the “Relative hydrolysis rate, Urokinase” value with Urokinase (setting [5]) is 17. Also, the “Relative hydrolysis rate, hK2” value with hK2 [3] turned out to be 353. For the same compound, the “hydrolysis following incubation with Cathepsin D (in words)” value in the data set with Cathepsin D is “No appreciable hydrolysis”. Also, the “Relative hydrolysis rate, Cathepsin D” value in the data set with Cathepsin D (setting [5]) is given as 1. Moreover, the “hydrolysis following incubation with Cathepsin B (in words)” value in the data set with Cathepsin B is listed as “No appreciable hydrolysis”. Besides, the “Relative hydrolysis rate, Cathepsin B” value in the data set with Cathepsin B (setting [5]) is 1. Besides, the “Relative hydrolysis rate, Plasmin” value with Plasmin (setting [5]) is listed as 36. The “fold slower rate of hydrolysis by plasmin than by hK2” value with Plasmin (fluorescence quenched peptide substrate) was “more than 10 fold”.
Consider “ac-GKAFRRLG: acetylated non-fluorescence quenched peptide (Ac-GKAFRRLG)”, for which the “hydrolysis by hK2 (in words)” value with hK2 [4] is reported as “rapidly hydrolyzed by hK2”.
